Consider 1 molecule from patent US6037450.

This assay concerns the target human protein C (human) (UniProt P04070). Nature of the assay: protein C affinity column (protein C held on HPC4 mAb-AffiGel-10, 3 mM CaCl2, 0.6 mM MgCl2); EPCR antigen in the fractions measured by ELISA.
UniProt P04070, sequence (P04070 43-461): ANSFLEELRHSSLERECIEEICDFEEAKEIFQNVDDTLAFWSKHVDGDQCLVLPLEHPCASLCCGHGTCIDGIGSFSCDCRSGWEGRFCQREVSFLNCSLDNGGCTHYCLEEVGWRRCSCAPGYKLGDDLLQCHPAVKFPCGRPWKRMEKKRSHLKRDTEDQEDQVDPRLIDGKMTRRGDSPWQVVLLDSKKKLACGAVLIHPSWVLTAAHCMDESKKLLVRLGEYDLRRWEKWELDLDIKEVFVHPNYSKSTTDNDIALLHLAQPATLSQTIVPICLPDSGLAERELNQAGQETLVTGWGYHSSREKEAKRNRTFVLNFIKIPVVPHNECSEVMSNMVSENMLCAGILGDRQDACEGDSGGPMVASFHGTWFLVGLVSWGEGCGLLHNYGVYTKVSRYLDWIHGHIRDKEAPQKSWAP

B1: plasma EPCR (soluble endothelial cell protein C/activated protein C receptor purified from human citrated plasma) (receptor)
chain: SQDASDGLQRLHMLQISYFRDPYHVWYQGNASLGGHLTHVLEGPDTNTTIIQLQPLQEPESWARTQSGLQSYLLQFHGLVRLVHQERTLAFPLTIRCFLGCELPPEGSRAHVFFEVAVNGSSFVSFRPERALWQADTQVTSGVVTFTLQQLNAYNRTRYELREFLEDTCVQYVQKHISAENTKG
For the molecule B1, the percent of applied antigen bound is greater than 98%.
